According to patent US11130803B2, “Isoform-selective TGFβ1 inhibitors and use thereof” (Scholar Rock, Inc., priority 2018, dated 2021):
Numbering of substitutions follows the chain as printed.

B1: Ab11: monoclonal antibody; VH SEQ ID NO: 239, VL SEQ ID NO: 241 (antibody, V domains shown)
VH: EVQLLESGGGLVQPGGSLRLSCAASGFTFRNYAMSWVRQAPGKGLEWVSSISGSGGATYYADSVKGRFTISRDNSKNTLYLQMNSLRAEDTAVYYCARVSSGHWDFDYWGQGTLVTVSS
VL: DIQLTQSPSSLSASVGDRVTITCRASQSISSYLNWYQQKPGKAPKLLIYAASNLQSGVPSRFSGSGSGTDFTLTISSLQPEDFATYYCQQTYTVPLTFGGGTKVEIK
B2: Ab20: monoclonal antibody; VH SEQ ID NO: 251, VL SEQ ID NO: 241 (antibody, V domains shown)
VH: B1 VH with R30S, N31A, S35T, S50A, A57V, F106Y
VL: B1 VL
B3: Ab22: monoclonal antibody; VH SEQ ID NO: 130, VL SEQ ID NO: 15 (antibody, V domains shown)
VH: EVQLVESGGGLVQPGGSLRLSCAASGFTFGSFSMNWVRQAPGKGLEWVSYIHSDASTIYYADSVKGRFTISRDNAKNSLYLQMNSLRAEDTAVYYCARGVLDYGDMLDPWGQGTLVTVSS
VL: DIQMTQSPSSLSASVGDRVTITCQASQDITNYLNWYQQKPGKAPKLLIYDASNLETGVPSRFSGSGSGTDFTFTISSLQPEDIATYYCQQADNHPPWTFGGGTKVEIK
B4: Ab31: monoclonal antibody; VH SEQ ID NO: 139, VL SEQ ID NO: 15 (antibody, V domains shown)
VH: B3 VH with G30S, N35D, H52S, S53P, S78T, G99A
VL: B3 VL
B5: Ab26: monoclonal antibody; VH SEQ ID NO: 134, VL SEQ ID NO: 15 (antibody, V domains shown)
VH: B3 VH with G30S, N35D, H52S, S53P, S78T
VL: B3 VL
B6: Ab29: monoclonal antibody; VH SEQ ID NO: 137, VL SEQ ID NO: 15 (antibody, V domains shown)
VH: B3 VH with G16R, G30S, S33A, H52S, S53P, D62G, A97V, G99A
VL: B3 VL
B7: Ab24: monoclonal antibody; VH SEQ ID NO: 132, VL SEQ ID NO: 15 (antibody, V domains shown)
VH: B3 VH with G16R, G30S, S33A, N35Y, H52S, S53P
VL: B3 VL
B8: Ab30: monoclonal antibody; VH SEQ ID NO: 138, VL SEQ ID NO: 15 (antibody, V domains shown)
VH: B3 VH with G30S, N35D, H52S, S53P, V100T
VL: B3 VL

What follows are molecules tested against T1, recombinant human GARP-proTGFβ1 complex (Homo sapiens, UniProt P01137) (assay: Octet (Biolayer Interferometry) in vitro kinetic binding). Details: in M.
T1 construct: made in house
Text: (§1) Biolayer Interferometry (BLI):BLI is a label-free technology for optically measuring biomolecular interactions, e.g., between a ligand immobilized on the biosensor tip surface and an analyte in solution. BLI provides the ability to monitor binding specificity, rates of association and dissociation, or concentration, with precision and accuracy. BLI platform instruments are commercially available, for example, from ForteBio and are commonly referred to as the Octet® System.
(§2) BLI-based binding assays are widely used in the art for measuring affinities and kinetics of antibodies to antigens. It is a label-free technology in which biomolecular interactions are analyzed on the basis of optical interference. One of the proteins, for example, an antibody being tested, can be immobilized on the biosensor tip. When the other protein in solution, for example, an antigen, becomes bound to the immobilized antibody, it causes a shift in the interference pattern, which can be measured in real-time. This allows the monitoring of binding specificity, rates of association and dissociation, as well as concentration dependency. […] Due to its ease of use and fast results, BLI-based assays such as the Octet® system (available from ForteBio/Molecular Devices, Fremont Calif.), are particularly convenient when used as an initial screening method to identify and separate a pool of “binders” from a pool of “non-binders” or “weak binders” in the screening process.
(§3) Table 8 below provides non-limiting examples of high-affinity, context-independent proTGFβ1 antibodies encompassed by the present invention. The table provides representative results from in vitro binding assays, as measured by Octet®.
(§4) Column (A) of the table lists monoclonal antibodies with discrete amino acid sequences. […] Columns (B), (D), (E) and (F) provide affinities of each of the listed antibodies, measured in KD. […] Average KD values of (B) and (C) are shown in the corresponding column (D), which collectively represents affinities of the antibodies to ECM- or matrix-associated proTGFβ1 complexes. Similarly, Average KD values of (E) and (F) are shown in the corresponding column (G), which collectively represents affinities of the antibodies to cell-surface or cell-associated proTGFβ1 complexes. Finally, relative ratios between the average KD values from columns (D) and (G) are expressed as “fold bias” in column (H). Thus, the greater the number of column (H) is, the greater bias exists for the particular antibody, when comparing binding preferences of the antibody for matrix-associated complexes and cell-surface complexes. This is one way of quantitatively representing and comparing inherent bias of antibodies to their target complexes. Such analyses may be useful in guiding the selection process for a candidate antibody for particular therapeutic use.
(§5) In some embodiments, the binding affinity of an antibody, or antigen binding portion thereof, to an antigen (e.g., protein complex), such as presenting molecule-proTGFβ1 complexes, is determined using an Octet assay. In some embodiments, an Octet assay is an assay that determines one or more a kinetic parameters indicative of binding between an antibody and antigen. In some embodiments, an Octet® system (ForteBio, Menlo Park, Calif.) is used to determine the binding affinity of an antibody, or antigen binding portion thereof, to presenting molecule-proTGFβ1 complexes. For example, binding affinities of antibodies may be determined using the fortéBio Octet QKe dip and read label free assay system utilizing bio-layer interferometry. In some embodiments, antigens are immobilized to biosensors (e.g., streptavidin-coated biosensors) and the antibodies and complexes (e.g., biotinylated presenting molecule-proTGFβ1 complexes) are presented in solution at high concentration ([…]) to measure binding interactions. […]

T1 sequence (P01137 30-390): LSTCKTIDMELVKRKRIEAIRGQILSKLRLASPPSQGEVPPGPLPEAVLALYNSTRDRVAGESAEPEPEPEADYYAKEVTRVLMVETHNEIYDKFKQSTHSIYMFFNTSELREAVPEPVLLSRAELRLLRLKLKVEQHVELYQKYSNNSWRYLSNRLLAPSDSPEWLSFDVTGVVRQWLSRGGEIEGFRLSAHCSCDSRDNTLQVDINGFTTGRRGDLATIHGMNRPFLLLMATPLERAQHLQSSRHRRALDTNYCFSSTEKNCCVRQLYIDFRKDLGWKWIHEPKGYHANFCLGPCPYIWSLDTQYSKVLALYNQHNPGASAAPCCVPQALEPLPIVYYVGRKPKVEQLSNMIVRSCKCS
T1 sequence (Q14392 20-627 partner limits assumed): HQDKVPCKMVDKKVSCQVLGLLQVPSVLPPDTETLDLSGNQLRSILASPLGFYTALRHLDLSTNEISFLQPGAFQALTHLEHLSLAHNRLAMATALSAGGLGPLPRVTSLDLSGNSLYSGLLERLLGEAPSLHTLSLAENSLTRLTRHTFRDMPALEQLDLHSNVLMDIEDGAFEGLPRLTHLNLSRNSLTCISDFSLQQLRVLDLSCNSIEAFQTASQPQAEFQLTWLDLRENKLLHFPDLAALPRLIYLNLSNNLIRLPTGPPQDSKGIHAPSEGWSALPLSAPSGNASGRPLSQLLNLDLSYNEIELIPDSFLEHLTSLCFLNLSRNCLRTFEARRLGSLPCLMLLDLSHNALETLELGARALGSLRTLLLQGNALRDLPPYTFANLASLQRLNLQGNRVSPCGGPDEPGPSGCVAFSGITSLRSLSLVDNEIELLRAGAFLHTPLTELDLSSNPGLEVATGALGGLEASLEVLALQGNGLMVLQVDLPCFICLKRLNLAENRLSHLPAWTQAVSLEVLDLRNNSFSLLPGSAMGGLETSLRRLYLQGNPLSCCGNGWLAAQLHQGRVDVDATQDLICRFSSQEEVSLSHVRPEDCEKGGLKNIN

Row | (E) hGARP, Cell-associated proTGFb1 (KD) | Molecule
1 | 8.42E−10 | B1
2 | 8.84E−10 | B2
3 | 9.74E−10 | B3
4 | 5.81E−10 | B4
5 | 6.25E−10 | B5
6 | 3.07E−10 | B6
7 | 6.65E−10 | B7
8 | 8.33E−10 | B8

The molecules below were run against T2, recombinant human LRRC33-proTGFβ1 complex (Homo sapiens, UniProt P01137) in the same assay as above. Details: in M.
T2 construct: made in house
Text: as §1, §2, §3, §4, §5

T2 sequence (P01137 30-390): as the sequence (P01137 30-390) above
T2 sequence (Q86YC3 19-650 partner limits assumed): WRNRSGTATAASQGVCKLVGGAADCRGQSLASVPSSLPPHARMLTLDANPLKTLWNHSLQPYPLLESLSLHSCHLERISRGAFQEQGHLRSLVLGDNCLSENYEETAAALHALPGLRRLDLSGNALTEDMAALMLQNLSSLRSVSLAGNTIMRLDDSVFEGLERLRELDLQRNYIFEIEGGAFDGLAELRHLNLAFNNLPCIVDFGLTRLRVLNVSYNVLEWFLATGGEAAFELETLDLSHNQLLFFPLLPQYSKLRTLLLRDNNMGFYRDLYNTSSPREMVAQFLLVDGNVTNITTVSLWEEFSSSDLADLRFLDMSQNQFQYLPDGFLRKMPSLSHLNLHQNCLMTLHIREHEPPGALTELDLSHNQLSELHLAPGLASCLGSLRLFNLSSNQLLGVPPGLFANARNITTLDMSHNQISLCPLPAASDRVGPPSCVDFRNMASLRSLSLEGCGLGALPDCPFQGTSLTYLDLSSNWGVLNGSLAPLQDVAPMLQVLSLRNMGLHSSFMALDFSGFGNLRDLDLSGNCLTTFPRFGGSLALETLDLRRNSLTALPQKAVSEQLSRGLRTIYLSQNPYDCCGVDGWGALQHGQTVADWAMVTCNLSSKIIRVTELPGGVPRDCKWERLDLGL

Row | (F) hLRRC33, Cell-associated proTGFb1 (KD) | Molecule
9 | 5.55E−10 | B1
10 | 5.45E−10 | B2
11 | 4.15E−10 | B3
12 | 4.10E−10 | B4
13 | 3.60E−10 | B5
14 | 3.02E−10 | B6
15 | 4.10E−10 | B7
16 | 5.35E−10 | B8

Each molecule was assayed against T3, recombinant human LTBP1-proTGFβ1 complex (Homo sapiens, UniProt P01137) in the same assay as above. Details: in M.
T3 construct: made in house; host or cells: Expi293F cells, transient co-transfection
Text: as §1, §2, §3, §4, §5

T3 sequence (P01137 30-390): as the sequence (P01137 30-390) above
T3 sequence (Q14766 873-1507 partner): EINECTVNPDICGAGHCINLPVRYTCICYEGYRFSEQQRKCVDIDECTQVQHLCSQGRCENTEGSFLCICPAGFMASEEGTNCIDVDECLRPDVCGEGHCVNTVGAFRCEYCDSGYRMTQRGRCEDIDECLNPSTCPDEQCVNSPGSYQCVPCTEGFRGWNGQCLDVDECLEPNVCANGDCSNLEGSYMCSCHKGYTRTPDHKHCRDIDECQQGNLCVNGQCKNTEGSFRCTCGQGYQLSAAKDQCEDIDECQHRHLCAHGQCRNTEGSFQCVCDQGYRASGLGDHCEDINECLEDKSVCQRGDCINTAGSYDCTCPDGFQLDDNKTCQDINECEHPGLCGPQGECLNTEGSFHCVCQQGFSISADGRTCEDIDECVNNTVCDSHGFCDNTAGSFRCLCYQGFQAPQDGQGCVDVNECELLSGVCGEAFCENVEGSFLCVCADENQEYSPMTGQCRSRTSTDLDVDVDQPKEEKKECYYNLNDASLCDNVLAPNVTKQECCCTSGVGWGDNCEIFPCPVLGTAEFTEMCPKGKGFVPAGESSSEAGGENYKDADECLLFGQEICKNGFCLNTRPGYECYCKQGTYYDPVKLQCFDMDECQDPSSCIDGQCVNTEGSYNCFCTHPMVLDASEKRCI

Row | (B) hLTBP1, Matrix-associated proTGFb1 (KD) | Molecule
17 | 1.67E−10 | B1
18 | 1.92E−10 | B2
19 | 3.18E−10 | B3
20 | 2.36E−10 | B4
21 | 2.21E−10 | B5
22 | 1.89E−10 | B6
23 | 2.46E−10 | B7
24 | 3.32E−10 | B8

What follows are molecules tested against T4, recombinant human LTBP3-proTGFβ1 complex (Homo sapiens, UniProt P01137) in the same assay as above. Details: in M.
T4 construct: made in house; host or cells: Expi293F cells, transient co-transfection
Text: as §1, §2, §3, §4, §5

T4 sequence (P01137 30-390): as the sequence (P01137 30-390) above
T4 sequence (Q9NS15 866-1039 partner limits assumed): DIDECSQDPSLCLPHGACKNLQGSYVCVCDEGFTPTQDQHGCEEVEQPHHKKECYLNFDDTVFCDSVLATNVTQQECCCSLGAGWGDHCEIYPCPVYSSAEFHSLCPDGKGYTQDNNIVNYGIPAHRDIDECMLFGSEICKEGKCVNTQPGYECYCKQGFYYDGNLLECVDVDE

Row | (C) hLTBP3, Matrix-associated proTGFb1 (KD) | Molecule
25 | 1.54E−10 | B1
26 | 1.31E−10 | B2
27 | 3.29E−10 | B3
28 | 1.81E−10 | B4
29 | 1.73E−10 | B5
30 | 1.21E−10 | B6
31 | 1.98E−10 | B7
32 | 2.61E−10 | B8

These molecules were tested against T5, hGARP-proTGFβ1 (Homo sapiens, UniProt P01137) (assay: MSD-SET solution equilibrium titration binding). Details: MSD-SET at equilibrium, hIgG4, human complex; in M.
T5 construct: made in house
Text: (§6) Solution Equilibrium Titration (SET): The SET is an assay whereby binding between two molecules (such as an antigen and an antibody that binds the antigen) can be measured at equilibrium in a solution. For example, Meso-Scale Discovery (“MSD”)-based SET, or MSD-SET, is a useful mode of determining dissociation constants for particularly high-affinity protein-protein interactions at equilibrium, such as picomolar-affinity antibodies binding to their antigens (see, for example: Ducata et al. (2015) J Biomolecular Screening 20(10): 1256-1267). The SET-based assays are particularly useful for determining KD values of antibodies with sub-nanomolar (e.g., picomolar) affinities.
(§7) In view of this, it is contemplated that assays that measure binding affinities of such antibodies at equilibrium may more accurately represent the mode of target engagement in vivo. Thus, MSD-SET-based binding assays (or other suitable assays) may be performed, as exemplified in Table 9 below.
(§8) Solution equilibrium titration (“SET”) is an assay whereby binding between two molecules (such as an antigen and an antibody that binds the antigen) can be measured at equilibrium in a solution. For example, Meso-Scale Discovery (“MSD”)-based SET, or MSD-SET, is a useful mode of determining dissociation constants for particularly high-affinity protein-protein interactions at equilibrium (see, for example: Ducata et al. (2015) J Biomolecular Screening 20(10): 1256-1267). The SET-based assays are particularly useful for determining KD values of antibodies with sub-nanomolar (e.g., picomolar) affinities.
(§9) For solution equilibrium titration-based binding assays, protein complexes that comprise one of the presenting molecules such as those shown above may be employed as antigen (presenting molecule-TGFβ1 complex, or an LLC). Test antibodies are allowed to form antigen-antibody complex in solution. Antigen-antibody reaction mixtures are incubated to allow an equilibrium to be reached; the amount of the antigen-antibody complex present in the assay reactions can be measured by suitable means well known in the art. As compared to BLI-based assays, SET-based assays are less affected by on/off rates of the antigen-antibody complex, allowing sensitive detection of very high affinity interactions.

T5 sequence (P01137 30-390): as the sequence (P01137 30-390) above
T5 sequence (Q14392 20-627 partner limits assumed): as the sequence (Q14392 20-627 partner limits assumed) above

Row | (E) hGARP, Cell-associated proTGFβ1 KD | Molecule
33 | 3.00E−09 | B1
34 | 1.10E−09 | B2
35 | 2.70E−11 | B3
36 | 1.90E−11 | B4
37 | 1.40E−11 | B5
38 | 5.50E−12 | B6
39 | 1.90E−11 | B7
40 | 2.20E−11 | B8

These molecules were tested against T6, hLRRC33-proTGFβ1 (Homo sapiens, UniProt P01137) (assay: MSD-SET solution equilibrium titration binding). Details: MSD-SET at equilibrium, hIgG4, human complex; in M.
T6 construct: made in house
Text: as §6, §7, §8, §9

T6 sequence (P01137 30-390): as the sequence (P01137 30-390) above
T6 sequence (Q86YC3 19-650 partner limits assumed): as the sequence (Q86YC3 19-650 partner limits assumed) above

Row | (F) hLRRC33, Cell-associated proTGFβ1 KD | Molecule
41 | 6.30E−09 | B1
42 | 1.60E−09 | B2
43 | 2.00E−10 | B3
44 | 9.60E−11 | B4
45 | 1.30E−10 | B5
46 | 4.30E−11 | B6
47 | 1.80E−10 | B7
48 | 1.40E−10 | B8

What follows are molecules tested against T7, hLTBP1-proTGFβ1 (Homo sapiens, UniProt P01137) (assay: MSD-SET solution equilibrium titration binding). Details: MSD-SET at equilibrium, hIgG4, human complex; in M.
T7 construct: made in house; host or cells: Expi293F cells, transient co-transfection
Text: as §6, §7, §8, §9

T7 sequence (P01137 30-390): as the sequence (P01137 30-390) above
T7 sequence (Q14766 873-1507 partner): as the sequence (Q14766 873-1507 partner) above

Row | (B) hLTBP1, Matrix-associated proTGFβ1 KD | Molecule
49 | 1.20E−09 | B1
50 | 2.20E−10 | B2
51 | 5.00E−11 | B3
52 | 1.90E−11 | B4
53 | 2.80E−11 | B5
54 | 1.20E−11 | B6
55 | 2.40E−11 | B7
56 | 3.10E−11 | B8

The molecules below were run against T8, hLTBP3-proTGFβ1 (Homo sapiens, UniProt P01137) (assay: MSD-SET solution equilibrium titration binding). Details: MSD-SET at equilibrium, hIgG4, human complex; in M.
T8 construct: made in house; host or cells: Expi293F cells, transient co-transfection
Text: as §6, §7, §8, §9

T8 sequence (P01137 30-390): as the sequence (P01137 30-390) above
T8 sequence (Q9NS15 866-1039 partner limits assumed): as the sequence (Q9NS15 866-1039 partner limits assumed) above

Row | (C) hLTBP3, Matrix-associated proTGFβ1 KD | Molecule
57 | 1.20E−09 | B1
58 | 1.80E−10 | B2
59 | 3.30E−11 | B3
60 | 1.40E−11 | B4
61 | 2.30E−11 | B5
62 | 1.10E−11 | B6
63 | 2.10E−11 | B7
64 | 2.60E−11 | B8
